# Assay results reported in patent US20210196828A1.
# How the values were obtained:
# [1] = target: manY component of the mannose permease complex (E. coli) (UniProt P69801)
# [2] = target: manZ component of the mannose permease complex (E. coli) (UniProt P69805)
substance,measurement,setting,value
Lambda gpH (Uniprot P03736),apparent titer of packaged phagemids in MG1655 and KEIO manY (log decrease in the apparent titer),[1],2
same,apparent titer of packaged phagemids in MG1655 and KEIO manZ (log decrease in the apparent titer),[2],2
